Laboratory results as given in the supplement of paper PMC6757056.
± gives the standard deviation of the averaged measurements.

B1: library; a variant is named by its letters at N, in order (parent)
chain: GCUGUCACCGAGAAACUGUGAAGUAUAUCUUAAACCUGGGCACUUAAAAGAUAUAUGGAGUUAGUAGUGCAACCUGCUCGGUCUGAUGAGUCCNNNNNNGGACGAAACAGC

Legend:
[1] = variants of: B1; experiment: FACS-Seq fitted mean relative fluorescence mCherry/BFP without ligand (log10 relative fluorescence); HEK293T; ligand: cyclic di-GMP (c-di-GMP-II aptamer); higher = higher reporter protein expression; settings: ligand present: no
Method in brief: (§1)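 Fluorescence values are fitted normal means of bin counts along the mCherry/BFP axis. HEK293T libraries lentivirally carrying the ribozyme switch in an mCherry reporter, with an EF1α-BFP marker, were enriched, exposed to ligand or not for 48 h, and sorted into 6 bins. Genomic DNA per bin was PCR-amplified, barcoded and run on MiSeq. Means of log10(mCherry/BFP) were scaled to five spiked-in control ribozymes.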

[2] = variants of: B1; experiment: normalized RNA/DNA level without ligand (relative to sTRSVctl = 100) (log10 (% of sTRSVctl)); HEK293T; ligand: cyclic di-GMP (c-di-GMP-II aptamer); higher = less ribozyme self-cleavage, higher mRNA level; settings: reporter: mCherry (pCS4076), ligand present: no
Description: (§2)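 Hammerhead (sTRSV) ribozyme switch libraries with a ligand aptamer grafted on stem I and a randomized N4-6 loop II, cloned into the 3' UTR of mCherry and transiently transfected into HEK293T cells; RNA-Seq 72 h post transfection with ligand added 1 h before transfection; RNA read count / plasmid DNA read count normalized to the non-cleaving sTRSVctl (x100), log10; sequences with >100 DNA reads. FACS-Seq: lentiviral library sorted into 6 bins after 48 h ligand, log-normal fit mean of mCherry/BFP scaled to controls. Printed sequences are partial switch sequences.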

[3] = variants of: B1; experiment: FACS-Seq fitted mean relative fluorescence mCherry/BFP with ligand (log10 relative fluorescence); HEK293T; ligand: cyclic di-GMP (c-di-GMP-II aptamer); ligand concentration (+) FACS-Seq: 1 mM; higher = higher reporter protein expression; settings: ligand present: yes
Method in brief: as §1

[4] = variants of: B1; experiment: normalized RNA/DNA level with ligand (relative to sTRSVctl = 100) (log10 (% of sTRSVctl)); HEK293T; ligand: cyclic di-GMP (c-di-GMP-II aptamer); ligand concentration (+) RNA-Seq: 1 mM; higher = less ribozyme self-cleavage, higher mRNA level; settings: reporter: mCherry (pCS4076), ligand present: yes
Description: as §2

Row | Variant | FACS-Seq fitted mean (log10) [1] | normalized RNA/DNA level without ligand (log10) [2] | FACS-Seq fitted mean (log10) [3] | normalized RNA/DNA level with ligand (log10) [4]
1 | CCCAUA | -0.471 ± 0.0071 | 1.4 ± 0.11 | -0.164 ± 0.0037 | 1.65 ± 0.09
2 | ACGAUU | -0.694 ± 0.056 | 1.2 ± 0.13 | -0.341 ± 0.036 | 1.41 ± 0.19
3 | ACGAUG | -0.381 ± 0.017 | 1.55 ± 0.084 | -0.168 ± 0.022 | 1.72 ± 0.14
4 | UCCAAA | -0.284 ± 0.0034 | 1.57 ± 0.076 | 0.111 ± 0.079 | 1.75 ± 0.12
5 | ACGAGU | -0.508 ± 0.033 | 1.43 ± 0.14 | -0.229 ± 0.13 | 1.7 ± 0.11
6 | ACGAGA | -0.604 ± 0.02 | 1.29 ± 0.12 | -0.453 ± 0.01 | 1.45 ± 0.067
7 | GCCACC | -0.0159 ± 0.27 | 1.682 ± 0.011 | 0.0347 ± 0.1 | 1.84 ± 0.095
8 | ACACUA | -0.717 ± 0.027 | 1.44 ± 0.038 | -0.414 ± 0.055 | 1.66 ± 0.15
9 | ACAUGG | -0.46 ± 0.077 | 1.44 ± 0.11 | -0.227 ± 0.031 | 1.61 ± 0.11
10 | GCAUAC | -0.0759 ± 0.13 | 1.42 ± 0.19 | 0.23 ± 0.036 | 1.6 ± 0.072
11 | GCAUAG | -0.627 ± 0.0092 | 1.44 ± 0.085 | -0.39 ± 0.049 | 1.66 ± 0.093
12 | CCACCU | -0.368 ± 0.015 | 1.66 ± 0.02 | -0.107 ± 0.015 | 1.8 ± 0.096
13 | GCACUA | -0.172 ± 0.017 | 1.48 ± 0.023 | 0.225 ± 0.12 | 1.75 ± 0.062
14 | GCACUU | -0.492 ± 0.071 | 1.588 ± 0.015 | -0.235 ± 0.081 | 1.8 ± 0.063
15 | GCACUC | -0.286 ± 0.015 | 1.5 ± 0.056 | 0.125 ± 0.0091 | 1.69 ± 0.17
16 | GCCAUA | 0.0302 ± 0.039 | 1.55 ± 0.05 | 0.269 ± 0.026 | 1.72 ± 0.069
17 | GCCAUU | -0.372 ± 0.0056 | 1.58 ± 0.016 | -0.161 ± 0.13 | 1.78 ± 0.13
18 | CCAGUA | -0.229 ± 0.044 | 1.5 ± 0.092 | 0.134 ± 0.047 | 1.73 ± 0.12
19 | CCAGUC | -0.422 ± 0.072 | 1.68 ± 0.023 | -0.0312 ± 0.045 | 1.83 ± 0.077
20 | CCAGUU | 0.0604 ± 0.26 | 1.69 ± 0.04 | 0.36 ± 0.0063 | 1.87 ± 0.077
21 | CCCGGU | -0.55 ± 0.093 | 1.724 ± 0.003 | -0.114 ± 0.093 | 1.87 ± 0.11
22 | GCCAGG | -0.568 ± 0.068 | 1.75 ± 0.071 | -0.429 ± 0.034 | 1.84 ± 0.087
23 | CCGAGA | -0.211 ± 0.078 | 1.46 ± 0.11 | 0.0834 ± 0.071 | 1.66 ± 0.086
24 | CCGAGC | -0.204 ± 0.022 | 1.78 ± 0.059 | 0.0994 ± 0.021 | 1.88 ± 0.14

Row | Variant | FACS-Seq fitted mean (log10) [1] | normalized RNA/DNA level without ligand (log10) [2] | FACS-Seq fitted mean (log10) [3] | normalized RNA/DNA level with ligand (log10) [4]
25 | ACGAAG | -0.359 ± 0.056 | 1.42 ± 0.13 | 0.0516 ± 0.11 | 1.63 ± 0.088
26 | ACGAAA | -0.618 ± 0.032 | 1.35 ± 0.1 | -0.313 ± 0.013 | 1.52 ± 0.11
27 | GCACAU | -0.28 ± 0.043 | 1.47 ± 0.055 | -0.00874 ± 0.0028 | 1.69 ± 0.11
28 | CCACAU | 0.0115 ± 0.077 | 1.54 ± 0.052 | 0.346 ± 0.031 | 1.76 ± 0.11
29 | CCCAGA | -0.192 ± 0.068 | 1.55 ± 0.021 | 0.0209 ± 0.061 | 1.74 ± 0.078
30 | GCAUUG | -0.56 ± 0.071 | 1.5 ± 0.13 | -0.211 ± 0.025 | 1.71 ± 0.052
31 | ACCGAA | -0.328 ± 0.091 | 1.44 ± 0.08 | -0.063 ± 0.13 | 1.62 ± 0.12
32 | GCGAAU | -0.502 ± 0.029 | 1.45 ± 0.057 | -0.149 ± 0.079 | 1.64 ± 0.14
33 | GCAGAG | -0.424 ± 0.029 | 1.4 ± 0.08 | -0.199 ± 0.03 | 1.58 ± 0.043
34 | GCAGAA | -0.671 ± 0.025 | 1.27 ± 0.082 | -0.367 ± 0.017 | 1.5 ± 0.13
35 | ACCCAC | 0.134 ± 0.14 | 1.69 ± 0.029 | 0.321 ± 0.024 | 1.84 ± 0.15
36 | CCAGGC | -1.034 ± 0.0013 | 1.636 ± 0.0075 | -0.924 ± 0.11 | 1.76 ± 0.15
37 | GCGACG | -0.315 ± 0.099 | 1.55 ± 0.096 | -0.216 ± 0.13 | 1.73 ± 0.076
38 | ACCUGA | -0.424 ± 0.033 | 1.52 ± 0.032 | -0.159 ± 0.035 | 1.72 ± 0.1
39 | GCGCUA | -0.702 ± 0.086 | 1.65 ± 0.043 | -0.433 ± 0.079 | 1.78 ± 0.17
40 | GCGCUC | 0.151 ± 0.12 | 1.45 ± 0.13 | 0.324 ± 0.017 | 1.62 ± 0.17
41 | UCACGA | -0.203 ± 0.066 | 1.632 ± 0.0055 | 0.146 ± 0.017 | 1.81 ± 0.091
42 | UCACGU | -0.191 ± 0.32 | 1.6 ± 0.044 | 0.0669 ± 0.07 | 1.79 ± 0.074
43 | ACGCGG | -0.429 ± 0.041 | 1.69 ± 0.034 | -0.107 ± 0.078 | 1.8 ± 0.13
44 | CCACUU | -0.246 ± 0.072 | 1.5 ± 0.069 | -0.0246 ± 0.1 | 1.69 ± 0.078
45 | CCACUA | -0.725 ± 0.038 | 1.43 ± 0.13 | -0.348 ± 0.019 | 1.66 ± 0.067
46 | CCCAAA | -0.275 ± 0.06 | 1.48 ± 0.062 | 0.0473 ± 0.081 | 1.69 ± 0.1
47 | GCAUGU | -0.424 ± 0.036 | 1.49 ± 0.073 | -0.147 ± 0.022 | 1.69 ± 0.072
48 | CCCGAA | -0.464 ± 0.055 | 1.39 ± 0.023 | -0.0882 ± 0.039 | 1.64 ± 0.13

Row | Variant | FACS-Seq fitted mean (log10) [1] | normalized RNA/DNA level without ligand (log10) [2] | FACS-Seq fitted mean (log10) [3] | normalized RNA/DNA level with ligand (log10) [4]
49 | UCCAGC | -0.739 ± 0.051 | 1.66 ± 0.059 | -0.609 ± 0.015 | 1.84 ± 0.15
50 | UCCAGA | -0.246 ± 0.071 | 1.631 ± 0.014 | 0.0947 ± 0.062 | 1.82 ± 0.081
51 | UCACUU | -0.404 ± 0.091 | 1.611 ± 0.0095 | -0.0521 ± 0.15 | 1.77 ± 0.14
52 | UCGAUU | -0.335 ± 0.14 | 1.55 ± 0.074 | 0.0883 ± 0.079 | 1.74 ± 0.17
53 | UCGAUA | -0.515 ± 0.044 | 1.35 ± 0.17 | -0.119 ± 0.11 | 1.51 ± 0.084
54 | ACCAGU | -0.368 ± 0.064 | 1.602 ± 0.0077 | 0.00485 ± 0.036 | 1.8 ± 0.068
55 | ACCUCC | 0.0782 ± 0.15 | 1.78 ± 0.055 | 0.281 ± 0.037 | 1.86 ± 0.15
56 | GCCAAU | -0.423 ± 0.1 | 1.57 ± 0.021 | -0.105 ± 0.08 | 1.75 ± 0.11
57 | GCCAAG | -0.6955 ± 0.0047 | 1.542 ± 0.0066 | -0.362 ± 0.081 | 1.67 ± 0.19
58 | UCCUCC | -0.766 ± 0.014 | 1.81 ± 0.047 | -0.515 ± 0.021 | 1.91 ± 0.17
59 | UCCUCG | 0.369 ± 0.066 | 1.797 ± 0.0034 | 0.448 ± 0.0052 | 1.91 ± 0.074
60 | ACCCUC | -0.504 ± 0.046 | 1.784 ± 0.015 | -0.217 ± 0.028 | 1.91 ± 0.057
61 | ACCCUG | -0.354 ± 0.046 | 1.67 ± 0.022 | 0.0314 ± 0.09 | 1.83 ± 0.097
62 | GCACGA | -0.471 ± 0.043 | 1.43 ± 0.093 | -0.123 ± 0.049 | 1.65 ± 0.11
63 | CCCUAG | -0.7711 ± 0.0036 | 1.65 ± 0.031 | -0.624 ± 0.025 | 1.84 ± 0.13
64 | ACCAAA | -0.438 ± 0.056 | 1.49 ± 0.12 | -0.0508 ± 0.12 | 1.71 ± 0.1
65 | ACCAAC | -0.0269 ± 0.12 | 1.6 ± 0.048 | 0.111 ± 0.07 | 1.76 ± 0.085
66 | ACCAAG | -0.4336 ± 0.0033 | 1.54 ± 0.1 | -0.172 ± 0.048 | 1.71 ± 0.09
67 | GCAGUA | -0.229 ± 0.042 | 1.59 ± 0.035 | 0.0693 ± 0.0072 | 1.7 ± 0.12
68 | CCCCCA | -0.0821 ± 0.078 | 1.71 ± 0.046 | 0.187 ± 0.091 | 1.83 ± 0.14
69 | GCCGCU | -0.109 ± 0.1 | 1.72 ± 0.015 | 0.0767 ± 0.02 | 1.92 ± 0.09
70 | ACAGCG | -0.358 ± 0.013 | 1.75 ± 0.0045 | -0.079 ± 0.031 | 1.86 ± 0.1
71 | CCAGCA | -0.507 ± 0.13 | 1.73 ± 0.021 | -0.329 ± 0.02 | 1.86 ± 0.098
72 | GCGCAU | -0.0572 ± 0.14 | 1.66 ± 0.058 | 0.0686 ± 0.025 | 1.8 ± 0.11
